Test results: US7407655

Target: human CXC Chemokine Receptor 3 (CXCR3) (human) (UniProt P49682)
Experiment: cell-based or functional assay

Chain of human CXC Chemokine Receptor 3 (CXCR3) (human) (P49682 whole entry): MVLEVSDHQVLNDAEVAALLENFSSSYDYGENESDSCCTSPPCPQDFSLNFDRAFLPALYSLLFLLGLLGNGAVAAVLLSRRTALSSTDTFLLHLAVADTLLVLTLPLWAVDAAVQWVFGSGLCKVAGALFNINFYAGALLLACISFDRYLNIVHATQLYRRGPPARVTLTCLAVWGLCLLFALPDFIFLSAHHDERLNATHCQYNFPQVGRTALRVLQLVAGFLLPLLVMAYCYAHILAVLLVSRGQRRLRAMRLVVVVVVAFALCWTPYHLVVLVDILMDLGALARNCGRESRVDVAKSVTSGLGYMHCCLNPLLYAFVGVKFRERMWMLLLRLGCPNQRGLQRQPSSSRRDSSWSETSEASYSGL
Chain of ENA78 (P42830 37-114 limits assumed): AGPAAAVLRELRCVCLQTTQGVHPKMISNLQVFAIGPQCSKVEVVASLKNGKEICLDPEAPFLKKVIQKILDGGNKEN
Chain of RANTES (P13501 24-91): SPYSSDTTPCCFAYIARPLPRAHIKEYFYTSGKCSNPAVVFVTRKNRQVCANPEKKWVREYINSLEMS
Chain of IL-8 (P10145 28-99 limits assumed): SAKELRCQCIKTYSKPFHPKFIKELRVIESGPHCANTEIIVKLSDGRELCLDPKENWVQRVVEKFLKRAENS
Chain of GROα (P09341 35-107 limits assumed): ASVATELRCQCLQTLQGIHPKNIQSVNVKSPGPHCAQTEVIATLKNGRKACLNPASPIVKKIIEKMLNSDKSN
Chain of MIP-1β (P13236 24-92 limits assumed): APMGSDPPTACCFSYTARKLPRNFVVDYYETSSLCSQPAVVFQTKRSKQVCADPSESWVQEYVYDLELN
Chain of GCP-2 (P80162 38-114 limits assumed): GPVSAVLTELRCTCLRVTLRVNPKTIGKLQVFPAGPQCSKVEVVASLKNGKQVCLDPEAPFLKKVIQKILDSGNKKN
Chain of MCP-2 (P80075 24-99 limits assumed): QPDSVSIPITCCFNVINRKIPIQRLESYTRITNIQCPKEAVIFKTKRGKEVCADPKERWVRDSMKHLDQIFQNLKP
Chain of MIP-1α (P10147 24-92 limits assumed): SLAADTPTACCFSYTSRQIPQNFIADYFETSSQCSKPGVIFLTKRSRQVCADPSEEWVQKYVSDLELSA

Molecule	[Ca^2+]i changes in IP-10/MigR transfectants [nM]
ENA78 (from UniProt P42830 37-114) (ligand)	> 100
GCP-2 (from UniProt P80162 38-114) (ligand)	> 100
GROα (from UniProt P09341 35-107) (ligand)	> 100
IL-8 (from UniProt P10145 28-99) (ligand)	> 100
MCP-1 (from UniProt P13500 24-99) (ligand)	> 100
MCP-2 (from UniProt P80075 24-99) (ligand)	> 100
MCP-3 (from UniProt P80098 24-99) (ligand)	> 100
MCP-4 (from UniProt Q99616 24-98) (ligand)	> 100
MIP-1α (from UniProt P10147 24-92) (ligand)	> 100
MIP-1β (from UniProt P13236 24-92) (ligand)	> 100
RANTES (from UniProt P13501 24-91) (ligand)	> 100
eotaxin (from UniProt P51671 24-97) (ligand)	> 100
lymphotactin (from UniProt P47992 22-114) (ligand)	> 100
NAP-2 (ligand, human, UniProt P02775 59-128, looked up) AELRCMCIKTTSGIHPKNIQSLEVIGKGTHCNQVEVIATLKDGRKICLDPDAPRIKKIVQKKLAGDESAD	> 100
I309 (ligand, human, UniProt P22362 24-96, looked up) KSMQVPFSRCCFSFAEQEIPLRAILCYRNTSSICSNEGLIFKLKRGKEACALDTVGWVQRHRKMLRHCPSKRK	> 100
PF4 (ligand, human, UniProt P02776 32-101, looked up) EAEEDGDLQCLCVKTTSQVRPRHITSLEVIKAGPHCPTAQLIATLKNGRKICLDLQAPLYKKIIKKLLES	> 100
